Patent US20230416380A1 (AJOU UNIVERSITY INDUSTRY ACADEMIC COOPERATION FOUNDATION, published 2023)

Columns and labels:
[1] = target: T1, sIL-5Rα (extracellular domain of human IL-5 receptor alpha subunit, Asp1-Asn313 of SEQ ID NO: 19, C-terminal Avi tag and 6×His tag, expressed in HEK293F) (human) (UniProt Q01344); experiment: BLI (Octet QKe), antibody on AHC sensor, sIL-5Rα in solution, 1:1 model
T1 sequence: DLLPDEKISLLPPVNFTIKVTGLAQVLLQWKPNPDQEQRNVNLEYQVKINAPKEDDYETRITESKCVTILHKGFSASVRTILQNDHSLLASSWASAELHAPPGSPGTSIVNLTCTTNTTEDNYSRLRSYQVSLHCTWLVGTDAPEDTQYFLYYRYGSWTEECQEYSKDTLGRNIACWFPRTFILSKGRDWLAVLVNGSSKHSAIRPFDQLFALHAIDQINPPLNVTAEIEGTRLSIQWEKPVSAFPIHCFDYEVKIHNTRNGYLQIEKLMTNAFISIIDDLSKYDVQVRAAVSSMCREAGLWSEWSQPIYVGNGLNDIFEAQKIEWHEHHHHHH

[2] = target: T2, human IL-5Rα on cells (TF-1/IL-5Rα cells stably overexpressing IL-5Rα; human eosinophils) (human) (UniProt Q01344); experiment: cell-based or functional assay
T2 sequence (looked up): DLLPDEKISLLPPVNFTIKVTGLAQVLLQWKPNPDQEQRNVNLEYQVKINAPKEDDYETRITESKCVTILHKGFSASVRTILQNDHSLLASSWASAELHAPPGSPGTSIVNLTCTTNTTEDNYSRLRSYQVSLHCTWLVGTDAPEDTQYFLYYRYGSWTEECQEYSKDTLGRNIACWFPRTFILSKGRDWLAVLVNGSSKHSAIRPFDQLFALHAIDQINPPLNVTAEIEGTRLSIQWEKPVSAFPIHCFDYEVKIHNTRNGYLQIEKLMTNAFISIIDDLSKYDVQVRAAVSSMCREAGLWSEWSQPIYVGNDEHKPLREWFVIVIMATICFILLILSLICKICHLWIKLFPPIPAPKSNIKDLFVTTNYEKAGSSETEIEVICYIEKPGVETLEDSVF

[3] = target: T1, sIL-5Rα (extracellular domain of human IL-5 receptor alpha subunit, Asp1-Asn313 of SEQ ID NO: 19, C-terminal Avi tag and 6×His tag, expressed in HEK293F) (human); experiment: binding competition ELISA: IL-5-mFc coated (competitor), antibody dilutions plus 100 nM IL-5Rα, anti-his-HRP
[4] = target: T3, sIL-5Rα (extracellular domain of human IL-5 receptor alpha subunit, Asp1-Asn313 of SEQ ID NO: 19, C-terminal … (human, UniProt Q01344 21-333)); experiment: BLI (Octet QKe), antibody on sensor, sIL-5Rα in solution, 1:1 model
T3 construct: also called sIL-5Rα antigen protein
T3 sequence: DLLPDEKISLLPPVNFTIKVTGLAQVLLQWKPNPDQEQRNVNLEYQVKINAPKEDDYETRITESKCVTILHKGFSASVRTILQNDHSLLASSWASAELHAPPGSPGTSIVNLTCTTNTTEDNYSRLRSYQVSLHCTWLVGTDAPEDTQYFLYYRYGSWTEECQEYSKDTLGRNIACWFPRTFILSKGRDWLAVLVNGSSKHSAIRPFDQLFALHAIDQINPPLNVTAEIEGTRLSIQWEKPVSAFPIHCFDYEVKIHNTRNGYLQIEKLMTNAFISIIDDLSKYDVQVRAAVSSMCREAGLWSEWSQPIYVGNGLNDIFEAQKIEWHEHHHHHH
Protocol: (§1) Specifically, 1× kinetic buffer was prepared by diluting 10× kinetic buffer (ForteBio, 18-1105) in PBS. […] Affinity was calculated with Octet Data Analysis software 11.0 in a 1:1 binding model.
(§2) Therefore, it was confirmed that the order of affinity was benralizumab>m2B7>hu2B7.

[5] = target: T4, human IL-5Rα on cells (TF-1/IL-5Rα cells stably overexpressing IL-5Rα; human eosinophils) (human, UniProt Q01344 21-420); experiment: cell-based or functional assay
T4 sequence (looked up): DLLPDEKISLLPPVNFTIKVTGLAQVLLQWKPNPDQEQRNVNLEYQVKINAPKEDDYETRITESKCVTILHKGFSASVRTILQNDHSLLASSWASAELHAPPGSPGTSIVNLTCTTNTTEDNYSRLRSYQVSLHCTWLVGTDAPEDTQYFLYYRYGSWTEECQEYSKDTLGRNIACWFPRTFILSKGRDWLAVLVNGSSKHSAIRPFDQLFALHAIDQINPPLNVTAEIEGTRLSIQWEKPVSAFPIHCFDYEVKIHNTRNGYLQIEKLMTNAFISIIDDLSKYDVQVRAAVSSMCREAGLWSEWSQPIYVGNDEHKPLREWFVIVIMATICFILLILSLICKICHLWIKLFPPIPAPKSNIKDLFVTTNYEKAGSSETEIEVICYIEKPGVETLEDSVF

[6] = target: T3, sIL-5Rα (extracellular domain of human …); experiment: BLI (Octet QKe), comparison of KD values
Protocol: as §1

[7] = target: T3, sIL-5Rα (extracellular domain of human …); experiment: binding competition ELISA: IL-5-mFc coated (competitor), antibody dilutions plus 100 nM IL-5Rα, anti-his-HRP; 5R65 antibody; IL-5-mFc coated, 100 nM IL-5Rα, anti-his-HRP
Protocol: (§3) Prior to biological efficacy evaluation, binding competition ELISA was performed to determine whether or not anti-IL-5Rα humanized antibodies bind competitively with IL-5 to the IL-5 binding site of IL-5Rα. Specifically, IL-5 (Uniprot code: P05113, Ile20-Ser134) was fused to the G4S linker and the heavy-chain constant region (hinge-CH2-CH3) of mouse IgG2a, was subjected to transient transfection and purified (FIG. 5C). The purified IL-5-mFc proteins were immobilized at a density of 100 ng/well on a 96-well plate at room temperature for 1 hour, and blocked using 0.1% PBST containing 2% skim milk at room temperature for 1 hour. After discarding the solution and then washing the same three times with 0.1% PBST, mixtures of anti-IL-5a antibody [2-fold dilution at 2,000 nM] at various concentrations were prepared and each mixture was added in an amount of 25 μl/well to the blocked plate, 100 nM IL-5Rα was further added at 25 μl/well for 1 hour, followed by reaction at room temperature for 1 hour. […] After discarding the solution and washing three times with PBST, a TMB solution was added in an amount of 50 μl/well, color development was induced at room temperature for 2 minutes and 30 seconds, the reaction was stopped using H₂SO₄ (2N), and the absorbance at 450 nm was measured.

[8] = target: T3, sIL-5Rα (extracellular domain of human …); experiment: competition ELISA: IL-5-mFc coated at 100 ng/well, antibody dilution series mixed with His-tagged sIL-5Rα, bound sIL-5Rα detected with anti-His-HRP; blocked ligand IL-5-mFc
[9] = target: T3, sIL-5Rα (extracellular domain of human …); experiment: BLI (Octet QKe), antibody on AHC sensor, sIL-5Rα in solution, 1:1 model
Protocol: as §1, §2

[10] = target: T3, sIL-5Rα (extracellular domain of human …); experiment: as above; remark: listed apart in the source
Protocol: as §1

[11] = target: T3, sIL-5Rα (extracellular domain of human …); experiment: binding competition ELISA: IL-5-mFc coated (competitor), antibody dilutions plus 100 nM IL-5Rα, anti-his-HRP; 5R86 antibody; IL-5-mFc coated, 100 nM IL-5Rα, anti-his-HRP
Protocol: as §3

B1: benralizumab analogue (benralizumab variable regions with an IgG1 constant region) (antibody, INN chains, looked up, V domains shown)
VH: EVQLVQSGAEVKKPGASVKVSCKASGYTFTSYVIHWVRQRPGQGLAWMGYINPYNDGTKYNERFKGKVTITSDRSTSTVYMELSSLRSEDTAVYLCGREGIRYYGLLGDYWGQGTLVTVSS
VL: DIQMTQSPSSLSASVGDRVTITCGTSEDIINYLNWYQQKPGKAPKLLIYHTSRLQSGVPSRFSGSGSGTDFTLTISSLQPEDFATYYCQQGYTLPYTFGQGTKVEIK
modifications: fucosylated IgG1
- Kd [1]: 26.8 nM
- koff [1]: 0.0011 s⁻¹
- kon [1]: 41100 M⁻¹ s⁻¹
- absolute IC50 (Abs IC50), inhibition of IL-5-dependent proliferation of TF-1/IL-5Rα cells [2]: 1.99 nM
- IC50 [3]: 9.8 nM

B2: m2B7 (anti-IL-5Rα mouse antibody) (antibody, V domains shown)
VH: QVQLQQPGAELVRPGASVKLSCKASGYTFTSYWINWVKQRPGQGLEWIGHIYPSESYTNYNQKFKDKATLTVDKSSSTAYMQLSSPTSEDSAVYYCTRDYYGRSYYYAMDYWGQGTSVTVSS
VL: DIVMTQSHKFMSTSVGDRVSITCKASQNVGTAVAWYQQKPGQSPKLLIYWASTRHTGVPDRFTGSGSGTDFTFTISNVQSEDLADYFCQQFGRYPYTFGGGTKLEIK
notes: also called mouse antibody m2B7; mB7
- Kd [4]: 40.2 nM
- koff [4]: 0.000834 s⁻¹
- kon [4]: 20700 M⁻¹ s⁻¹

B3: 5R65.7 (anti-IL-5Rα humanized antibody, affinity matured from 5R65) (antibody, V domains shown)
VH: QVQLVQSGAEVKKPGSSVKVSCKASGYTFTSYWINWVRQAPGQGLEWIGHIYPNKNENYYNHKFKDKATLTVDKSTNTAYMELSSLRSEDTAVYYCTREFYGRQYYQAMDYWGQGTTLTVSS
VL: DIQMTQSPSTLSASVGDRVTITCKASQNVGTAVAWYQQKPGKAPKLLIYWASTRHTGVPDRFSGSGSGTDFTLTISSLQPDDFATYYCQQFGRYPYTFGSGTKVEVK
- abs IC50, inhibition of IL-5-dependent proliferation of TF-1/IL-5Rα cells [5]: 0.57 nM

B4: 5R65 (anti-IL-5Rα humanized antibody) (antibody, V domains shown)
VH: QVQLVQSGAEVKKPGSSVKVSCKASGYTFTSYWINWVRQAPGQGLEWIGHIYPNKNENYYNHKFKDKATLTVDKSTNTAYMELSSLRSEDTAVYYCTRDYYGRSYYYAMDYWGQGTTLTVSS
VL: DIQMTQSPSTLSASVGDRVTITCKASQNVGTAVAWYQQKPGKAPKLLIYWASTRHTGVPDRFSGSGSGTDFTLTISSLQPDDFATYYCQQFGRYPYTFGSGTKVEVK
notes: Only VH-CDR2 of hu2B7 was diversified, the light chain is that of hu2B7; also called 5R65 antibody
- affinity relative to the benralizumab analogue [6]: ~2 fold
- IC50 [7]: 9.5 nM

B5: hu2B7 (humanized m2B7) (antibody, V domains shown)
VH: QVQLVQSGAEVKKPGSSVKVSCKASGYTFTSYWINWVRQAPGQGLEWIGHIYPSESYTNYNQKFKDKATLTVDKSTNTAYMELSSLRSEDTAVYYCTRDYYGRSYYYAMDYWGQGTTLTVSS
VL: DIQMTQSPSTLSASVGDRVTITCKASQNVGTAVAWYQQKPGKAPKLLIYWASTRHTGVPDRFSGSGSGTDFTLTISSLQPDDFATYYCQQFGRYPYTFGSGTKVEVK
notes: Expressed from plasmids encoding HC and LC and purified on protein A; also called humanized antibody hu2B7
- IC50 [8]: 57.4 nM
- Kd [9]: 47.8 nM
- koff [9]: 0.00106 s⁻¹
- kon [9]: 22200 M⁻¹ s⁻¹

B6: 5R68 (anti-IL-5Rα humanized antibody) (antibody, IgG1, V domains shown)
VH: QVQLVQSGAEVKKPGSSVKVSCKASGYTFTSYWINWVRQAPGQGLEWIGHIYPTATIAVYNDKFKDKATLTVDKSTNTAYMELSSLRSEDTAVYYCTRDYYGRSYYYAMDYWGQGTTLTVSS
VL: DIQMTQSPSTLSASVGDRVTITCKASQNVGTAVAWYQQKPGKAPKLLIYWASTRHTGVPDRFSGSGSGTDFTLTISSLQPDDFATYYCQQFGRYPYTFGSGTKVEVK
- Kd [10]: 24.1 nM
- koff [10]: 0.000566 s⁻¹
- kon [10]: 23500 M⁻¹ s⁻¹
- IC50 [8]: 28.8 nM

B7: 5R80 (anti-IL-5Rα humanized antibody) (antibody, IgG1, V domains shown)
VH: QVQLVQSGAEVKKPGSSVKVSCKASGYTFTSYWINWVRQAPGQGLEWIGHIYPQKTLTIYNHKFKDKATLTVDKSTNTAYMELSSLRSEDTAVYYCTRDYYGRSYYYAMDYWGQGTTLTVSS
VL: DIQMTQSPSTLSASVGDRVTITCKASQNVGTAVAWYQQKPGKAPKLLIYWASTRHTGVPDRFSGSGSGTDFTLTISSLQPDDFATYYCQQFGRYPYTFGSGTKVEVK
- Kd [10]: 16.2 nM
- koff [10]: 0.000365 s⁻¹
- kon [10]: 22500 M⁻¹ s⁻¹
- IC50 [8]: 24.2 nM

B8: 5R86 (anti-IL-5Rα humanized antibody) (antibody, IgG1, V domains shown)
VH: QVQLVQSGAEVKKPGSSVKVSCKASGYTFTSYWINWVRQAPGQGLEWIGHIYPTSSVKFYNNKFKDKATLTVDKSTNTAYMELSSLRSEDTAVYYCTRDYYGRSYYYAMDYWGQGTTLTVSS
VL: DIQMTQSPSTLSASVGDRVTITCKASQNVGTAVAWYQQKPGKAPKLLIYWASTRHTGVPDRFSGSGSGTDFTLTISSLQPDDFATYYCQQFGRYPYTFGSGTKVEVK
- Kd [10]: 11.8 nM
- koff [10]: 0.000325 s⁻¹
- kon [10]: 27600 M⁻¹ s⁻¹
- IC50 [11]: 14.1 nM
